From the DeepSol protein solubility set come the findings set out here.

This series is described as follows: soluble on expression in E. coli; label from the status in PepcDB or PDB records.
As to “KGDFVFKPYLLVQTCANFNWYDDEGLDKAYNQDNVANSGFSIPYAVLGFTGKAFGKVAFNLSINAAASGGALLQQAWFDVQLKKQFAVRVGKFKTPFSHAYLTTLGETLLPQLPVSLTSAIILPYSLNAVTPNIGTGFDLGVEIHGLLADKFGYEVGLFNGTGSSVNTATKTLSDDWHIPSLLYAGRFTYMPKGVMPSTQGNPNRLNEDKIMFGVSASINVESENESTNDTRVGVEFAMLKNKLYLGAEAYYMNVGFTDRQKINETYNYLGGYVQGGYFVAPRLQAALRYDFFNRNGTSDDGFLNMPAVGVNYFFKGCNLKLQAMYQYIARTGHDTQLDRDNDNLGLATHSATVMLQYTF”, the “soluble on expression in E. coli” value is “not soluble”.

With “KGHLTRLGLEFFDQPAVPLARAFLGQVLVRRLPNGTELRGRIVETEAYLGPEDEAAHSRGGRQTPRNRGMFMKPGTLYVYIIYGMYFCMNISSQGDGACVLLRALEPLEGLETMRQLRSTLRKGTASRVLKDRELCSGPSKLCQALAINKSFDQRDLAQDEAVWLERGPLEPSEPAVVAAARVGVGHAGEWARKPLRFYVRGSPWVSVVDRVAEQDTQA”, the “soluble on expression in E. coli” value was “soluble”.

In the case of “KGKCVIFIIDGLGDRPNEKGLTPLKEAKTPTMDKIAKEGICGLMNAIDIGIRPGSDTAHLAILGYNPYEVYTGRGPLEAFGVGLDLKEGDIAFRCNFATVDENFVVLDRRAGRISPEEAEELEKEIDGLEIDGVKVIFKSSKGYRGALVLRGEGLSCRVSDGDPHEEGVKVSEIKPLDDSEEAKRTAEILNKLLKIVYEKLNNHPINEERRKKGLPPANIILPRGAGVVPKIEKFSEKYNMKGACICGTGLIKGMAKMIGLDVIEVEGATGTPKTNFMGKAKALVEALKEYDFVLVNVKGADEASHDGNYELKKEVLEKIDEMLAYVFEHINKDEVYFVLTGDHSTPIEMKDHSADPIPIVIWGKSVRVDDVTEFNEFACAKGALHWIKGEHVMKILLDLTG”, the “soluble on expression in E. coli” value is on record as “not soluble”.

With “KGLSADKKYFETRVNPTSVFWTGGKWKERLVQIMSQTQEQDILKFLKQTASPAMHELQRELSEEYGLSVRVDKMFHRDEPAIEFVIRKETMRDFMYGIKSVGQDVSDQLINDGKLPHIRHQTTYKPYAYFFDGRVGYDVQYMNKDELIADILKNYERYLMLLDDVGQELMAHEQVELAE”, the “soluble on expression in E. coli” value is given as “not soluble”.

“KGNTFLWLDDILYCERVDGLVFAYTKNKVYQIFHSLRDLEASYYRLGYVRCSKSMIVNIYKIHYFNSEPYGRIRATMENKEEIIISRKYANRIRTILQ”: the “soluble on expression in E. coli” value is recorded as “not soluble”.

Take “KLGTSTGEFTGSNQTTQPTAIMELINKVQKDAANAQLSIAAPLSSSAYIPKGDVTIKDIMSVYVYENYLYGIKMTGKQLKDWLEYSVRYYKQVSSPNDSIAKDPALNVPDYNLDQLYGATYDIDLTQPACTIDPSTGRIASGDRIKNLKINGVPIKDSDVFTVAINDYRYNGGGGFMKAAGISNTDPSIVTYSSAKALGDDGQVRSLMQSYIKNNQTISPENSNNWKLYTT”: the “soluble on expression in E. coli” value is reported as “not soluble”.

For “KLKNYKTSELMIQSSNNYKLESLFITSNIKTRDTMILVHGIGSSYYEMLKVAYRYLDKGYNVLVYNQRNTGNSGGDNYTFGLYERYDLDSLVKFVKNKFPEGRLGVHGFSMGAGTAAMHSEINSKDDKVDFYILDSPYSEMKDAIRMGVLEKRIPDILINYVVTCGDLYNKFKSGFWYSDVKPYESVEKSNVPILFIHGTKDTVCNYQNSKKMYDLVKHDKKDLWLIEGIGHVDGFEHDSTVYFNKIFKFIDSNVLSDKS”, the “soluble on expression in E. coli” value is on record as “not soluble”.

“KNNPDPTIYPVLDWNDIKFQDVIGEGNFGQVLKARIKKDGLRMDAAIKRMKEYASKDDHRDFAGELEVLCKLGHHPNIINLLGACEHRGYLYLAIEYAPHGNLLDFLRKSRVLETDPAFAIANSTASTLSSQQLLHFAADVARGMDYLSQKQFIHRDLAARNILVGENYVAKIADFGLSRGQEVYVKKTMGRLPVRWMAIESLNYSVYTTNSDVWSYGVLLWEIVSLGGTPYCGMTCAELYEKLPQGYRLEKPLNCDDEVYDLMRQCWREKPYERPSFAQILVSLNRMLEERKTYVNTTLYEKFTYAGIDCSAEEAA”: the “soluble on expression in E. coli” value is on record as “soluble”.

Regarding “KPPIPPQVEEEYYTIAEFQTTIPDGISFQAGLKVEVIEKNLSGWWYIQIEDKEGWAPATFIDKYKKTSNASRPNFLAPLPHEVTQLRLGEAAALENNTGSEATGPSRPLPDAPHGVMDSGLPWSKDWKGSKDVLRKASSDMSASAGYEEISDPDMEEKPSLPPRKESIIKSEGELLERERERQRTEQLRGPTPKPPGVILPMMPAKHIPPARDSRRPEPKPDKSRLFQLKNDMGLECGHKVLAKEVKKPNLRPISKSKTDLPEEKPDATPQNPFLKSRPQVRPKPAPSPKTEPPQGEDQVDICNLRSKLRPAKSQDKSLLDGEGPQAVGGQDVAFSRSFLPGEGPGRAQDRTGKQDGLSPKEISCRAPPRPAKTTDPVSKSVPVPLQEAPQQRPVVPPRRPPPPKKTSSSSRPLPEVRGPQCEGHESRAAPTPGRALLVPPKAKPFLSNSLGGQDDTRGKGSLGPWGTGKIGENREKAAAASVPNADGLKDSLYVAVADFEGDKDTSSFQEGTVFEVREKNSSGWWFCQVLSGAPSWEGWIPSNYLRKKP”, the “soluble on expression in E. coli” value is given as “soluble”.

In the case of “KPYPYQQDMLESLQAEREQHNRHRNLLVAATGTGKTVVAALDYRSMCDALGRRPRLLFIAHRKEILQQALRTFREVLSDGNFGELLVDGVLPKEWTHVFASIQSLNTSRMEALGKDHFEFIIIDEFHHAQAISYRKVMDYFEPQELLGLTATPERG”, the “soluble on expression in E. coli” value is on record as “not soluble”.

As for “KREPALNPNEYKKFMLREKQIINHNTRLFRFNLHHPEDVVGLPIGQHMSVKATVDGKEIYRPYTPVSSDDEKGYFDLIIKVYEKGQMSQYIDHLNPGDFLQVRGPKGQFDYKPNMVKEMGMIAGGTGITPMLQVARAIIKNPKEKTIINLIFANVNEDDILLRTELDDMAKKYSNFKVYYVLNNPPAGWTGGVGFVSADMIKQHFSPPSSDIKVMMCGPPMMNKAMQGHLETLGYTPEQWFIF”, the “soluble on expression in E. coli” value is reported as “soluble”.

Consider “KRQKIHLGDRSQKCSKCGIIFIRRSTLSRRKTPMCEKCRKDSCQEAALNKDEGNESGKKT”, for which the “soluble on expression in E. coli” value is reported as “soluble”.

Regarding “KSAIVHLINYQDDAELATRALPELTKLLNDEDPVVVTKAAMIVNQLSKKEASRRALMGSPQLVAAVVRTMQNTSDLDTARCTTSILHNLSHHREGLLAIFKSGGIPALVRMLSSPVESVLFYAITTLHNLLLYQEGAKMAVRLADGLQKMVPLLNKNNPKFLAITTDCLQLLAYGNQESKLIILANGGPQALVQIMRNYSYEKLLWTTSRVLKVLSVCPSNKPAIVEAGGMQALGKHLTSNSPRLVQNCLWTLRNLSDVATKQEGLESVLKILVNQLSVDDVNVLTCATGTLSNLTCNNSKNKTLVTQNSGVEALIHAILRAGDKDDITEPAVCALRHLTSRHPEAEMAQNSVRLNYGIPAIVKLLNQPNQWPLVKATIGLIRNLALCPANHAPLQEAAVIPRLVQLLVKAHQDAQRHVAAGTQQPYTDGVRMEEIVEGCTGALHILARDPMNRMEIFRLNTIPLFVQLLYSSVENIQRVAAGVLCELAQDKEAADAIDAEGASAPLMELLHSRNEGTATYAAAVLFRISEDKNPDYRKRVSVELTNSLFKHD”, the “soluble on expression in E. coli” value is recorded as “soluble”.

With “KSLLTAKTRNTIIFAFHPQAQKSSVAAAKIVYQAARKAGAPKDFIQWIETPSLENTTALMQNPEIASILATGGPSMVHAALTSGNPSMGVGAGNGAVFIDHTARVRRAAEDLLLSKRFDNGMICATE”, the “soluble on expression in E. coli” value is listed as “not soluble”.

As for “KTGFFVGPMAEFTLPIIGIGADVAALYSQTDLGADGEKTMKLKTFAVPVNLKWSFGLGSMLGAYIAAGPQFDFNIGNKTWTRELSLKKSTTSFNVGAGLKLIRHLQLGVNYNFALSKTGTYEYYTEGESGDGHHSVNIKNNTWQVSLAYLF”, the “soluble on expression in E. coli” value is “not soluble”.

“LDDYDWFAGNISRSQSEQLLRQKGKEGAFMVRNSSQVGMYTVSLFSKAVNDKKGTVKHYHVHTNAENKLYLAENYCFDSIPKLIHYHQHNSAGMITRLRHPVS”: the “soluble on expression in E. coli” value is on record as “soluble”.

For the sequence “LDPEEIRKRLEHTERQFRNRRKILIRGLPGDVTNQEVHDLLSDYELKYCFVDKYKGTAFVTLLNGEQAEAAINAFHQSRLRERELSVQLQPTDALLCVANLPPSLTQQQFEELVRPFGSLERCFLVYSERTGQSKGYGFAEYMKKDSAARAKSDLLGKPLGPRTLYVHWTDAGQLTPALLHSRCLCVDRLPPGFNDVDALCRALSAVHSPTFCQLACGQDGQLKGFAVLEYETAEMAEEAQQQADGLSLGGSHLRVSFCAPGPPGRSMLAALIAAQATALNRG”, the “soluble on expression in E. coli” value is “soluble”.

In the case of “LGGVFKKAGSKGLKGVRLVISDAHEGLKAAIKKILTGSAWQRCRVHFMRNVLSQVPKHYQGMVSSIIRTIFAQNDQESAREQLRHVVDELKNRFPKAMKILEEAEEEILAYMAFPREHWAQIHSTNPLERLNREIRRRTDVVCIFPNREAVIRLVGAMLMEQNDEWKVGRRYFSLESMSKITSINEFTLTPVALLHK”, the “soluble on expression in E. coli” value is reported as “soluble”.

For the sequence “LITPQYKSEAKLYVLSKETTLTSLADLQIGSQLTQDYKILVGSRPVLQGVVDHMKLDMTYRKLEKKLTIDNPNNTRILTLTIKDPNPYLAKSIVDEVANTASDYIGEIMEMVPPKLIEDGEVASEKASPNVLKNT”, the “soluble on expression in E. coli” value is recorded as “not soluble”.

Consider “LKEILDEMFRDEVQKLKYFLEDVKEEDEELYNKIVDALKLFKENYEIEDIKIPKKIRVFLVKNNILFLNPQKGSLKPQSYLVWNAIKMLL”, for which the “soluble on expression in E. coli” value is “not soluble”.

Take “LLRHISDAFAEDPLRVLRVARFAARFHHLGFSIAEQTLELMQKMTACGELNHLTAERIWRETEKALHTESPHIYFQVLRKVNALAILFPEIDQLFGQIQSVKYHLETDRGQHTLLALQQAKLLVKQAHNPTALLWAVLCHDLGKDLISAEMLPHHYQPNVTGIQLTHQLADRLKVPTAVKELALLVNKYHTNCHKIAELDSERVLELFNQLDVWRKPQRLDDFLLACEADARARLGAEYCSYPQA”: the “soluble on expression in E. coli” value was “not soluble”.

As to “LNLSGLSLSCEYQPFVCPHTKHIHGYEALARFYLGQGQAIAPNLVFEQLHENSNALAAVEFQAKTFQLKHAPARQSLFVNVDPHAANGVHTQKLLDLLSSHPQLTVEIIENTCISDAELANQLFHQFKTANLNVALDDIGAPHSMLSVDLMMNVDYLKFDRHWLNLVAEPHGIALLSALIEFGKRTGKQCILEGIETEAQLQLARELNVDLVQGFLFKP”, the “soluble on expression in E. coli” value is recorded as “not soluble”.

For “LNSPMITIVGTRTMTNYGKKILEEFVPKIIDSGIAVVSGLAKGIDAYAHQLALEKQGTAIAVIGNGTNISYPAENQSIQKRIISDGLLLSEYFPKSRPKQYHFPARNRILAGLTSATLVVEAKERSGSLITAAYATQENRNVLAIPGDLNRNNSNGTNQLIADGAKAVLKIDDILNE”, the “soluble on expression in E. coli” value is recorded as “not soluble”.

On to “LPIISIDTKQQVIPLVTKEGGKYVKARDNINVDIELRDSPSRSHHLSEKPRIRTKGLISYRGNTSRYFDKKSLKVKFVTNKLKEKKHRLAGMPKESEWVLHGPFLDRTLLRNYLSYNIAGEIMSYAPNVRYCELFVNGEYQGVYLAVENIEQGEQRVPIEKSDKKLHKTPYIVAWDREHKAKQKLDNYVHYTHQSGISALDVKYPGKQRLTSKQLEFINKDINHIEKVLYSYDFSQYPKYIDRESFANYFVINEFFRNVDAGKFSTYLYKDLRDRAKLVVWDFNNAFDNQIEGRVDEADFTLTDAPWFNMLIKDKAFIDLVVHRYKELRKGVLATEYLSNYIDETRHFLGPAIDRNYKKWGYVFDLKNTDPRNYLIPTERNVTSYHKSVEQLKDFIKKRGRWMDRNIETLYQYSAPSKNTNTLLE”, for which the “soluble on expression in E. coli” value is “not soluble”.

As to “LPKPGVYYFPWEVSDGHVPEGSTLRTFGRLYLYDMARSLMTLAAPQKPDQCQLLVCTNLVEPFEAHVNFLYMVLGDLERMEGGAFVVRARLLTCVEGMDLSLLEKAILEQRRHLQKRQQPIGDASTLQTPTPAPQSIPSD”, the “soluble on expression in E. coli” value is reported as “not soluble”.
